{"source": "patent US20100279930A1", "about": "“HUMAN PANCREATIC POLYPEPTIDE (HPP) ANALOGUES AND THEIR EFFECTS ON FEEDING BEHAVIOUR” (priority 2007, published 2010)", "molecules": {"B1": {"name": "4055860 (peptide)", "chain": "CAPLEPVYPGDNATPEQMAQYAADLRRYINMLTRPRYCAPLEPVYPGDNATPEQMAQYAADLRRYINMLTRPRY", "modifications": "synthetic hPP analogue peptide"}}, "tested_on": "Male C57BL/6 mice", "experiment": "In vivo food intake experiments in mice (half-life in the blood judged from appetite suppression)", "parameters": "species or system mouse", "details": "comparator native human PP; judged from food intake reduction in mice (4-8 h, 0-24 h, 4:1 or 24:1 ratio)", "procedure": "In Vivo Food Intake Experiments\nMale C57BL/6 mice (20-30 g) were used for all mouse experiments. Mice were individually housed in IVC cages. Animals were randomized by weight and fasted overnight for 16 hrs before intraperitoneal injection at 9 am. All peptide solutions were prepared freshly the morning of the study and injected as 100 ul. Food intake was measured at 1, 2, 3, 4, 6, 8 and 24 hours post injection. The peptide was dosed at 30 nmol/kg, 50 nmol/kg, 100 nmol/kg, 120 nmol/kg, 150 nmol/kg, 300 nmol/kg, 600 nmol/kg or 1000 nmol/kg depending on the activity. In each case, a control of saline and a control of unmodified human Pancreatic Polypeptide was carried out. All statistics are calculated using a one-way ANOVA with Dunnett's post-test or one-way ANOVA with Bonferroni post-test.\nA control of saline was used.\nFIG. 2 and in the comparative graph of FIG. 3. […] It is hypothesized that that is as a possible result of stronger activity at the receptor and longer activity.\nThe mouse is a good model for degradation rates in humans, irrespective of the fact that the receptors for PP in mice are different from the human receptor."}
{"molecule": "B1", "values": [{"measurement": "half-life in the blood compared with native human PP", "result": "longer half life"}]}
